From US20210106652A1, “Immunogenic Compounds For Treatment Of Fibrosis, Autoimmune Diseases And Inflammation” (ENTEROME S.A., priority 2018, published 2021)

Assays:
HLA-A*0201 = biological target: T1, HLA-A*0201 (Homo sapiens, UniProt P04439, D140Y/D185E/D98H/E176V/E277Q/G131W/G231S/I119V/I121R/I166T/I218V/L300P/L318F/N151K/N90K/P208A/P217A/Q86G/Q94H/R138H/R169H/T345S); experiment: Affinity of the peptide to HLA-A*0201 on T2 cell line (FACS, anti-HLA-A2); format: binding; conditions: for In vitro binding affinity: Example 5, relative affinity = concentration of peptide inducing 20% of HLA-A*0201 expression / that of reference peptide HIV pol 589-597, lower = higher affinity; for Concentration of peptide that induces 20% of HLA-A2 expression: Example 7; for binding to HLA-A*0201 (in words): T2 cells
T1 construct: human tumoral cell T2 which expresses the HLA-A*0201 molecule; endogenous in cells; host or cells: T2 cells (human, TAP1/2 negative)
Source text: The experimental protocol is similar to the one that was validated for peptides presented by the HLA-A*0201 (Tourdot et al., A general strategy to enhance immunogenicity of low-affinity HLA-A2.1-associated peptides: implication in the identification of cryptic tumor epitopes. Eur J Immunol. 2000 December; 30(12):3411-21). Affinity measurement of the peptides is achieved with the human tumoral cell T2 which expresses the HLA-A*0201 molecule, but which is TAP1/2 negative and incapable of presenting endogenous peptides.
(§1) T2 cells (2.10^5 cells per well) are incubated with decreasing concentrations of peptides from 100 μM to 0.1 μM in a AIMV medium supplemented with 100 ng/μl of human β2m at 37° C. for 16 hours. Cells are then washed two times and marked with the anti-HLA-A2 antibody coupled to PE (clone BB7.2, BD Pharmagen).
The analysis is achieved by FACS (Guava Easy Cyte).
(§2) For each peptide concentration, the geometric mean of the labelling associated with the peptide of interest is substracted from background noise and reported as a percentage of the geometric mean of the […] labelling obtained for the reference peptide HIV pol 589-597 at a concentration of 100 μM. The relative affinity is then determined as follows:
relative affinity=concentration of each peptide inducing 20% of expression of HLA-A*0201/concentration of the reference peptide inducing 20% of expression of HLA-A*0201.
The experimental protocol was similar to the one that was validated for peptides presented by the HLA-A*0201 (Tourdot et al., A general strategy to enhance immunogenicity of low-affinity HLA-A2.1-associated peptides: implication in the identification of cryptic tumor epitopes. Eur J Immunol. 2000 December; 30(12):3411-21).
as §1, with “were” for “are”
The analysis was achieved by FACS (Guava Easy Cyte).
as §2, with “was subtracted” for “is substracted”
The experimental protocol, materials and methods correspond to those outlined in Example 3, with the only difference that the above mentioned (poly)peptides were used.
The experimental protocol, materials and methods correspond to those outlined in Example 2, with the only difference that the above mentioned (poly)peptides were used.

HHD DR3 mice = experiment: IFN-γ ELISpot immunogenicity and cross-reactivity in HHD DR3 (HLA-A2 transgenic) mice; format: in vivo, mouse; conditions: 100 μg s.c. d0, d14 with helper peptide (DR3) and IFA; challenge with either IL13RA2-L or IL13RA2-H
Procedure: The (poly)peptide of the present invention IL13RA2-L (SEQ ID NO: 279) and the corresponding human reference peptide IL13RA2-H (SEQ ID NO: 263) were tested in distinct groups of male and female HHD DR3 mice expressing human HLA-A2 and HLA-DR3 MHC and lacking the murine H-2 class I and class II MHCs. Groups of 5 mice (male and female) were subcutaneously injected on days 0 and 14 with 100 μg of IL13RA2-L (SEQ ID NO: 279) or IL13RA2-H (SEQ ID NO: 263), 150 μg of helper peptide (DR3) and IFA. On day 21, the mice were euthanized and splenocytes were prepared and stimulated in vitro with IL13RA2-L or the human corresponding peptide IL13RA2-H to assess their capacity to secrete IFN- as assessed by ELISpot. Concanavalin A (ConA) was used as a positive control.

[1] = biological target: T2, HLA-A*0201 molecule expressed on human T2 cells (human); experiment: T2 cell assay; relative affinity against reference peptide HIV pol 589-597
T2 construct: MHC class I molecule on T2 cells; also called HLA-A2

## 1F9M: tryptophan at position 1 of SEQ ID No 263 substituted by phenylalanine and isoleucine at position 9 substituted by methionine (FLPFGFILM)
HLA-A*0201
  In vitro binding affinity: 2.62

## 1I9A: tryptophan at position 1 of SEQ ID No 263 substituted by isoleucine and isoleucine at position 9 substituted by alanine (ILPFGFILA)
HLA-A*0201
  In vitro binding affinity: 2.22

## ALPFGFILV [1A9V]
HLA-A*0201
  In vitro binding affinity: 3.06
  Concentration of peptide that induces 20% of HLA-A2 expression: 36.5 µM

## CLYTFLIST [IL13RA2-H2]
HLA-A*0201
  binding to HLA-A*0201 (in words): do not bind to or show much lower affinity

## FLPFGFILPV [IL13RA2-L]
HHD DR3 mice
  immune response (IFN-γ ELISpot, spot forming cells) after immunisation: strongly immunogenic
HLA-A*0201
  Concentration of peptide that induces 20% of HLA-A2 expression: 3.2 µM

## FLPFGFILV [IL13RA2-B]
HLA-A*0201
  Concentration of peptide that induces 20% of HLA-A2 expression: 2.9 µM
  binding to HLA-A*0201 (in words): bind strongly

## WLPFGFILI [IL13RA2-H]
HHD DR3 mice
  immune response (IFN-γ ELISpot, spot forming cells) after immunisation: does not induce an immune response
HLA-A*0201
  binding to HLA-A*0201 (in words): do not bind to or show much lower affinity

## YLYTFLIST [IL13RA2-B2]
HLA-A*0201
  binding to HLA-A*0201 (in words): bind strongly

B1: IL13RA2-B (FLPFGFILV, SEQ ID NO: 31) (peptide)
peptide: FLPFGFILV
notes: also called IL13RA2-B pAg; candidate peptide
[1]
  In vitro binding affinity: 0.3

B2: peptide 1A9V (SEQ ID NO: 263 with tryptophan 1 to alanine and isoleucine 9 to valine) (peptide)
peptide: ALPFGFILV
notes: Analogue described by Eguchi et al. 2006; also called comparative peptide 1A9V
[1]
  In vitro binding affinity: 3.6

## FLPFGFILPV (also called IL13R2A-L) [IL13RA2-L (SEQ ID NO: 279)]
[1]
  In vitro binding affinity: 0.3
